# From the nanobody polyreactivity screen of Harvey et al. (2022)
# Assay: yeast display, Sf9 membrane polyspecificity reagent, FACS + sequencing; frameworks hold sequencing errors
# How it was run: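 Using colony PCR, genes from sorted yeast display clones were amplified, then sequenced on MiSeq at 2 × 250 and filtered by CDR length. The clones had been stained with 10% biotinylated, detergent-solubilized Sf9 membrane reagent for 1 hour at 4 °C and sorted by FACS into low and high (top ~1%) gates on anti-HA and streptavidin fluorescence. Polyreactivity labels come from the gate of origin.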
row,Sequence,polyreactivity (PSR sort gate)
1,QVQLVESGGGLVQAGGSLRLSCASSGSKLGINVMGWYRQAPGKERELVAAISRRGGSTNYADSVKGRFTISRDNAKNTVYLQMNSLKPEDTAVYYCNALGHVQGYDYWGQGTQVTVSS,high polyreactivity
2,QVQLVESGGGLVQAGGSLRLSCASSGSTFEANAMGWSRQAPGKDRELVAAISSRGGSTYYADSVKGRFTISRDNGKNTVYFQRNSLKPEDTAVYYCAALLRSGGEYDYWGQGTQVTVSS,high polyreactivity
3,QVQLVESGGGLVQAGGSLRLSCASSGSTFGPNDMGWYRQAPGKERELVAAISRSGDDTYYADSVKGRFTISRDNAKNTVYLQMNSLKPEDTAVYYCNADGRPFFLRPLRWELDYWGQGTQVTVSS,low polyreactivity
4,QVQLVESGGGLVQAGGSLRLSCASSGSTFKVYDMGWSRQAPGKERELVATITWGGGGTYYADSVTGRFTISRDNAKNTVYLLMNSLKPQDTAVYFCAAEVTLYSCYRYWYRYEYWGQGTQVTVSS,high polyreactivity
5,QVQLVESGGGLVQAGGSLRLSCASSGSTFYSYVMGWYRQAPGKERELVAAITYSGGRTYYADSVKGRFTISRDNEKNTVYFQMYSLKPEDTAVYYCAKRVFNYQRYDYWGQGTQVTVSS,high polyreactivity
6,QVQLVESGGGLVQAGGSLRLSCASSGSTFYYYAMGWYRPAPGKERELVAAITKSGGSTYYADSVKGRFTISRDNAKNTVYLQMNSLKPEVTAVYYCAAYLRSGYKFDYWGQGTQVTVSS,low polyreactivity
7,QVQLVESGGGLVQAGGSLRLSCASSGSTLRWYAMGWYRQAPGKERELVARISWTTGSTYYADSVKGRFTISRDNAKNTVYLQMNSLKPEDTAVYYCAKGKKSSRSGIYNYWGQGTQVTVSS,high polyreactivity
8,QVQLVESGGGLVQAGGSLRLSCASSGSTLYDNAKGWYRPAPGKERELVAAISKSGGRTYYADSVKGRFTISRDNAKNSVYLQMNSLKPEDTAVYYCNDVSSGGDYNYWGQGTQVTVSS,high polyreactivity
9,QVQLVESGGGLVQAGGSLRLSCASSGSTVSVNAMGWSRQAPGKESEFVASISKRGGSTYYADSVKGRFTISRDNAKNTVYLQMNSLKPEDTAVYYCARVLTGPGRLDYWGQGTQVTVSS,high polyreactivity
10,QVQLVESGGGLVQAGGSLRLSCASSGYTFIRYAIGLYRQAPGKERELVAAIRGTGTSTYYADSVKGRFTISRDNAKYTVYLQMNSLKTEDTAVYYCNKVAGRSPYTRYDYWGQGTHVTVSS,low polyreactivity
11,QVQLVESGGGLVQAGGSLRLSCASSGYTFTVYAKGWYRQAPGKERELVAAITWNGASTYYADSVKGRFTISRDNAKNTVYLQMNSLKPEDTAVYYCADPYYFYRDRYRLDYWGQGTQVTVSS,low polyreactivity
12,QVQLVESGGGLVQAGGSLRLSCATSGSIFPTYAMGSYRQAPGKERELVAAISAIVGGTYYADSVKGRFTISRDNAKNTVYLQMNSLKPEDTAVYYCNKTKFQGYDYWGQGTQVTVSS,low polyreactivity
13,QVQLVESGGGLVQAGGSLRLSCATSGSIFVFNAMGWYRQAPGKERELVAAIDTSDDITYYADSVKGRFTISRDNAKNTVYLQMISLKPEDTAVYYCNADTYGLVRYYIYHYEFDYWGQGTQVTVSS,high polyreactivity
14,QVQLVESGGGLVQAGGSLRLSCAVRRTLSFYAMGWYRQAPGKERELVATISRSGGSTYYADSVKGRFTISRDNAKNTVYLQMNSLKPEDTAVYYCAVRWKAHYWGPIYYYWGQGTQVTVSS,high polyreactivity
15,QVQLVESGGGLVQAGGSLRLSCAVSGRIFRRNVMGWYRQAPGKERELVAGISYSGDSTYYADSVKGRFTISRDNAKKTVYFQMNSLKPEDTAVYYCAAAVAHYRGMYYWGQGTQVTVSS,low polyreactivity
16,QVQLVESGGGLVQAGGSLRLSCAVSGRIFRRNVMGWYRQAPGKERELVAGISYSGDSTYYADSVKGRFTLSRDNAKITDYLQMNSLKPEDTAVYYCATRYTYSTDTGYDYWGQGTQVTVSS,low polyreactivity
17,QVQLVESGGGLVQAGGSLRLSCDASARTFYRNTMGWYRQAPGKERELVAAITRSGGSTYYADSVKGRFTISRDNAKNTVYLQINRLKPEDTAVYYCAASRTYYAPYGYWGQGTQVTVSS,high polyreactivity
18,QVQLVESGGGLVQAGGSLRLSCDASGFIIRRNAMGWYRQAPGKEREFVAAITWSGGSTYYADSVKGRFTISRDNAKNTVYLQMYSLKPEDTAVYYCAATYSQYWYTQYLNSYPGYDYWRQGTQVTVSS,low polyreactivity
19,QVQLVESGGGLVQAGGSLRLSCDASGFILSSNAMGWYRQAPGKERELVAAISSSGRTYYTDSVKGRFTISRDNAKNTVYLQMNSLKPEDTAVYYCAAGGYYYAIGYWGQGTQVTLSS,high polyreactivity
20,QVQLVESGGGLVQAGGSLRLSCDASGFTFGENAMGWYRQAPGNERELVAAISWSGTYTSYADSVKGRFTLSRDNAKNTVYLQMNSLKPEDTAVYYCATGCYAYVYPFDYWGQGTLVTVSS,low polyreactivity

row,Sequence,polyreactivity (PSR sort gate)
1,QVQLVESGGGLVQAGGSLRLSCDASGGIFFLYAMGWYRQAPGKERELVAAITNDGRTYYADSVKGRFTISRDNAKYTVYLQMNSLKPEDTAVYYCDAAALISVGDLVIYEDDYWGQGTQVTVSS,low polyreactivity
2,QVQLVESGGGLVQAGGSLRLSCDASGIIFKYNAMGWYRQAPGKERELVAAITRRGGITYYADSVKGRFTISRDNAKNTVYLQMNSLKPEDTAVYYCAADLVYYHYYPWFYYWGQGTQVTVSS,high polyreactivity
3,QVQLVESGGGLVQAGGSLRLSCDASGIIFNTYAMGWYRQAPGKERELVAAISSSGGRTYYADSVKGRFTISRDYAKNTVYLQMNSLKPEDTAVYFCAADYRGGIRYYRGAAYNYWGQGTQVTVSS,high polyreactivity
4,QVQLVESGGGLVQAGGSLRLSCDASGITFGNYAMGWYRPAPGKDRELVAAITGSGGRTYYADSVKGRFTISRDNAKNTVYLQMNSLKPEDTAVYYCNRRQYGRKKQYDYWGQGTQVTVSS,high polyreactivity
5,QVQLVESGGGLVQAGGSLRLSCDASGLIFYDNMGWYRQAPGKERELVAAISSSGGSTSYADSVKGRFTISRDNAKNTVYLQMNSLKPEDTAVYYCAAELGYIGSYYWIYYYWGQGTQGTVSS,low polyreactivity
6,QVQLVESGGGLVQAGGSLRLSCDASGLILGINSMGWYRQAPGKERELVAAISSSGGRTSYADSVKGRFTISRDNAKNTVYLQMNSLKPEDTAVYYCAKRRTTYSHYDYWGQGTQVTVSS,low polyreactivity
7,QVQLVESGGGLVQAGGSLRLSCDASGNIFKSYVMGWYRQAPGKERELVAAITWSGGSTYYADSVKGRFTISRDNAKNTVYLQMNSLKPEDTAVYYCAAYPRRYRTTYDYWGQGTQVTVSS,high polyreactivity
8,QVQLVESGGGLVQAGGSLRLSCDASGNIFYPNAMGLYRQAPGKERELVAAISSSGGSTYYADSVKGRFTISRDNAKNTVYLQMNSLKPEDTAVYYFAKDRSYAYYLWPYPTGYDYWGQGTQVTVSS,low polyreactivity
9,QVQLVESGGGLVQAGGSLRLSCDASGNTFHTNAMGWYRQAPGKERELVAAITGGGSTYYADSVKGRFTISRDNAKKTVYLQMNSLKPEDTAVYYCNTDVPYGLDVSDTIDYFYWGQGTKVTVSS,low polyreactivity
10,QVQLVESGGGLVQAGGSLRLSCDASGRIFHIYAMGWYREAPGKERELVASISWSGDSTYYADSVKGRFTISRDNAKNTVYLQINSLKPEDTAVYYFAAEGEETEGYDYDYWGQGTQVTVSS,low polyreactivity
11,QVQLVESGGGLVQAGGSLRLSCDASGRIFQYNAMGWSRQAPGKLRELVAAITVGGSTNYADSVTGRFTISRDNAKNTVYLQKNSLKPEDTAVSYCNKAWSSSWQVTYGICGQGTQVTVSS,high polyreactivity
12,QVQLVESGGGLVQAGGSLRLSCDASGRIFYRYTMGWYRQAPGKERELVAAITDDSSTDYADSVKGRFTISRDNAKNTVYLQMNSLKPEDTAVYYCNADWYWKYDYWGQGTQVTVSS,low polyreactivity
13,QVQLVESGGGLVQAGGSLRLSCDASGRIIQQYAMGWYRQAHGKERELVDAISRGGSTYYADSVKGRFTISRDNAKNTVYLQMNSLKPEDTAVYYCAVRSRRGLKYDYWGQGTQVTVSS,high polyreactivity
14,QVQLVESGGGLVQAGGSLRLSCDASGRTFFYNAMGLYRQAPGKERELVAAISKNGGNTYYADSVKGRFTISRDNAKNTVYLQMNSLKPEDTAVYYCAARQSRTGPDRNDYWGQGTQVTVSS,high polyreactivity
15,QVQLVESGGGLVQAGGSLRLSCDASGRTFKQNAMGWYRQAPGKERELVATIRNGVNTNYEDSVKGRFTISRDNAKNTVYLQMNSLKPEDTAVYYCAARYWQAHAFQGNTGYSWQYGYWGQGTQVTVSS,high polyreactivity
16,QVQLVESGGGLVQAGGSLRLSCDASGRTFVRYAMGWYRQAPGKERELVARITSRGTSTYYADSVKGRFTISRDNAKNTVYLQMNSLKPEDTAVYYCNKVRTFRDKSRYDYWGQGTQVTVSS,low polyreactivity
17,QVQLVESGGGLVQAGGSLRLSCDASGRTIRHNAMGWYRQAPGKERELVAAISKRGGRTYYADSVKGRFTISRDNAKNTVYLQMNSLKPEDTAVYYCATRSSGYSLGDYWGQGTQVTVSS,high polyreactivity
18,QVQLVESGGGLVQAGGSLRLSCDASGSIFEYYAMGWYRQAPGKERELVAAIRVSDVNTYYADSVKGRFTISRDNAKNTVYFQMNSLKPEDTAVYYCANAYKGYSDFDYWGQGTQVTVSS,high polyreactivity
19,QVQLVESGGGLVQAGGSLRLSCDASGSIFGINVMGWYRQAPGTERELVARINDGADTNYADSVKGRFTISRDNAKNTVYLQMNSLKPEDTAVYYCAKPYYDGRTHFDSWGQGTQVTVSS,low polyreactivity
20,QVQLVESGGGLVQAGGSLRLSCDASGSIFGPYARGWYRQEPGKERELVAAITWTGGRTYYADSVKGRFTISRDNAKNTVYLQMNSLQPEDTAVYYFAADYSPSTWDLYYTLYYYWGQGTQVTVSS,low polyreactivity
